Measurements published in the DeepSol protein solubility set.

Assay: soluble on expression in E. coli; label from the status in PepcDB or PDB records

Sequence | soluble on expression in E. coli
MAHHHHHHMPRALRYCRPRRDPDESLLAYLSTKFTYLADAQWRQHIAAGDISVNGETLTDGSYVLRQGDMLRFAPPRSLEPPVDSEHIEVLYEDSTLLVVTKNGNLPVAEGGRYCENTLVEVLRRRGTAAFYTASTRTSFGTTHEDTEKVSDSPTHAGEIVETAARAEGSTAMDASGKGAEIPTSPPSRRRLEDGSHGIFAVGSAPCASVPSPKASTVQQRSSLDLFTVQRLDKETSGVVVLAKNSVSARTLASQLEAQTKGCADAVESRLRERGHAVALSSDAFDELLRLKAQSVHKTYTAVLRGAAPEDHTFVVVNCMDCMAKHPTHSWEAQHTQLKKLKMCCEPVKEMLFSHAAAALPQSPKEQQTRWGRLAVTRIRVLASNKKLGLTCVQVELLTGRSHQIRLHCAAVGYPVLGDKLYTTMTPGREGGATAVSDAVYLERVRREDDPYLPIDDDVSGAGGSSRSGKMWCRRHLLHATRIIFAHPDVSPARLMTFMASPAPFFTADVRFECEEDSLLFSQWLTRAVSRPLERAEASQS | not soluble
MGSDKIHHHHHHVMTKAADGMSDWDNMAIICDVLGRAPDVEMGSIGEGWSLCRWRQFVGAYTLPALPQPIFTVHIAGKPQVKTWDKGGWTETSSIPGCATIVPAGMPTGWLVDGELDVVTLSMASDVLAGQPHADQFNRMRFAFSDPLGVALTRQILSEIYAPQAEERTAYVSAMVGALKAHILSGPPAHGNPVDIPVSDFSAYRLHKIMNAILADPAAEHSLEAMAAVAGVTPSHFCRLFKKAIGITPHQYVMKARLDRAQQMLVQTEMSLAALSEAAGFASQSHFSRAFRSWFGMAPSDFRQQERRRTD | not soluble
MGSDKIHHHHHHMRETPFRLLLDARACRKKGSAAILQRQRERLVEMVTYARTCSPYYRQLYQGLPARITDPRLLPVTTKAALMAHFDDWVTDPAVTLEGTQSFVADPSLLGEKFLNRYTAATTSGTTGTRGLFLLDTRTLAVSKALTFRMLSSWLTPADLMGIIRGRGRIAMVVATGGHFASAAAAAALRKGPARHSVRVFPVQTPIPDLVAQLNSFRPALLAPYASTGRLLASEQEAGRLTIQPVAVILSAEGLPAGEYARISGAFGAKVRQGYAATECPFLSYSCQEGWLHVNSDWAILEPVDANHEPVPPGQPSHTVLLSNLANRIQPILRYDLGDSVTARTDPCRCGDPTPAIHVQGRNAELLTLQGNRLAVAVTPLTLSTALDRVQGLSKGQIIQTGPQSLSLRLQPAAGADPENVWESARSEITRALTSHGLGNVTITRDAGPPLLTPGGKHRTVVPLPP | not soluble
SDFVNNLDTDTSLSILSCLDDPSDIVRASAVSRSWRQFVVKYSLSKNLCLKLFHQLSNVDHIIETSNDRNGESSEAGSSSLMDTRLLEKEHRAFALLARGCMSSPIESCIADAIRASSTDNYPVESILNTLEKRDRIGRTPSYWSSTGQHKTTVPESLLYKLIGDLCLITEVSIHPFQAYFQRGHPIYSSHYVRFRLGHEKDNSPHYNNSQDKKGEPGKSSIESNYVWTYTSQEFSMAQENRLQSFQLPEPVLCIGGYLLVEFLGRVQTQEMDGQYYICVSHVKVEGRSLAKSFRVENVDDNGKFGLKVLSYNDPKKMEEMDAEAGQDMDAEAGQSQLRNLEQLLNLLHRHPLDVVDYVWPDESDDEYAESEDEAEP | soluble
MMYRIRNWLVATLLLLCAQVGAATLSDIQVSNGNQQARITLSFIGDPDYAFSHQSKRTVALDIKQTGVIQGLPLLFSGNNLVKAIRSGTPKDAQTLRLVVDLTENGKTEAVKRQNGSNYTVVFTINADAPPPPPPPPVVVKRVETPTVVAPRVSEPARNPFKTESNRTTGVISSNTVTRPAARATANNGDKIIIAIDAGHGGQDPGAIGPGGTREKNVTIAIARKLRTLLNDDPMFKGVLTRDGDYFISVMGRSDVARKQNANFLVSIHADAAPNRSATGASVWVLSNRRANSEMASWLEQHEKQSELLGGAGDVLANSQSDPYLSQAVLDLQFGHSQRVGYDVATSMISQLQRIGEIHKRRPEHASLGVLRSPDIPSVLVETGFISNNSEERLLASDDYQQQLAEAIYKGLRNYFLAHPMQSAPQGATAQTASTVTTPDRTLPN | not soluble
MAVTISGVRKHSPAYRHGIQAGERLLTLNGNEIMDVLDYRFYQLNTALVLELENNRGERRTVSLKKPEYEEIGLEFETYLMDRQHSCKNKCVFCFIDQLPKGLRKSLYFKDDDSRLSFLFGNYVTLTNLTEHEISRIIKMHISPMNISVHTTNPELRVKMMKNPRAGEALSIIRRFAQAGIKINCQIVLCPGYNDGEELKRTLSDLETMCPQVQAVAVVPVGITRYRQNLPEMRSFTRETAGEAIDLIESFGEKCLQKYGTRVAYPGDEFYLKAERPLPPAGFYEDFSMLENGVGLLPLLMDEFYSALEEAGETGGRKREITIATGMAPREYIRGFLDDAIKKFPHISGRVTPIVNRFFGETITVSGLVTGTDLIEQLSSVDLGDELLIPACMLRREGDLFLDDVSLQDVEAALKVPVRPVPNDGYAFLDAILGSESLEHHHHHH | not soluble
SNGAGLAADIQLQRDAKTPLALSAKLAEVFFRTGNPLAATLADWPGLLELGNGRATAAAGWKLDAAGGSSLDLDLTLKGLDGIYDRSELKGLGGSLALRLRGGQLSLDSPGLSLAEANPGLPLGPVSFRGRYEAPLSAPGSGRLSWQTLQSGLFGGQASVPAGSIRLGQAEQKFALRIQGIQLGEIFRVYPAEGLAGEGTLDGELPLMLNRWKPSVSGGQVKAREPGYLRFRSAKIEALGRSNPGMKLVADALDDFHYDVLQSSVDYHENGKLLLGLRLQGSNPDLEKGRPVNLNVNLEEDIPALLTSLQLSDRVSETIRQ | not soluble
GSHMLFAEFAEFCERLEKISSTLELTARIAAFLQKIEDERDLYDVVLFITGKVYPPWDERELGVGIGLLYEALENVSGVKRSEIESMIREYGDLGLVAEQLIKKKKMTTLAFEELTVRKVRETFDEIASLTGEGSMKRKIMLLTGLYGLATPLEARYLTRLILNEMRLGVGEGIMRDAIARAFRADPETVERAYMITNDLGRVAVVAKKEGEEGLRKMKIEIHIPVRMMLAQVAESLESAVREMRTAAVEWKFDGSRVQVHWDGSRVTIYSRRLENVTNALPDIVEEIKKSVKPGVILDGEVIAVKEGKPMPFQHVLRRFRRKHDVAKMVEKIPLEAHFFDILYHDGECIDLPLRERRKLLESAVNESEKIKLAKQIVTDSVDEVRKMYDEAISAGHEGVMIKLPSSPYIPGKRGKNWLKVKAIMETLDLVVVGGEWGEGKRSHWLSSFELACLDPVTGKLLKVGRVATGFTEEDLEELTEMFRPLIVSQQGKKVEFIPKYVFEVAYQEIQKSPKYESGYALRFPRFVRLRDDKDVDEADTIERVENLYKLQFEVKRQ | soluble
MKGAEALLRALEREGVEVIFGHPGGAIMPTYDALYDSPIRHILVRHEQGGVHAATAYARASGRVGVVMATSGPGALNLVTGLADAMMDSTPVVAITGNVPRALIGTDAFQEADVTGVTMPITKHNYLVQDVNEIPRVVKEAFHIAATGRPGPVLIDIPKDVQLAEFTGSFDVKLDLPGYKPTLKGHPKQIERALDALEKAERPVLMVGGGAQHAHAELLAFAEKTGLPVITTLMGLGAFPGNHPLWLGMPGMHGTVAANRAIHHADVILAIGLRFDDRVTGKVSRFAPHAHTIIHVDIDPAEIGKVVRTHIPIVGDSRLVLKELLKGAKALRLAAWWRELEEWRTRYPLRYRPKPHLQSQEVIRAFYEATGGHAIVTTGVGQHQMFAAQFFPVTRPRSFLTSGGLGTMGVGLPFAIGAKIARPEELVIDFDGDGSFQMTLQELATVVKYKLDVKVVILNNGYLGMVRQWQDLFHAKRYSEVYLADSNPDFARLAEAYGIKGVRVERKEDLMKGVEAVLNADGPVVAEFKVYQEEGVFPMIPAGGAAEDMILEPPEEKEEVGA | soluble
MDANTLNVSFEEILKGKKLDEDSIGLTLSPDKDHEDGSQVSPTQDRKELDQVVGEDEKDDFFE | soluble
MSSRVPILKVDDYWVVAIEETLHDQSVIQFKEELLHNITGVAGKGLVIDISALEVVDSFVTRVLIEISRLAELLGLPFVLTGIKPAVAITLTEMGLDLRGMATALNLQKGLDKLKNLARMEQR | soluble
MGSDKIHHHHHHMRIAIIEDEPLAAEKLAGYIQRQWPEAKIIATLSSVDAVIEFFNQPQNLDLLFSDIELSDGQVFSALEQIDVPCPVIFTTSYNDYWMNAFQNQGIEYLLKPFSFKRFSQAVANYQALFEQRSKIETTSFKQRFIIKQQGASEMLNVAEIHCFRAANGTILAGDKQGQYHILSDNNLSQLEAQLDPKVFFRINRADIININSLIKFETYTKETLALYIKGYSEALVTSKTRTANFRKWLEA | not soluble
MNEEKQQELLISVIITNYNYDQFIDQAIESVLSQTYYNFELIIVDDGSTDNSRDVISSYTDSRIKALVKNNGGQASAFNAGFEQANGEIICFLDSDDWWKPEKLETIIRWHYFINKDYAIFQHVLDVWYEGKTRPYKHILPSGDCFAEMKKVKKLDFFVPTSGLSFPKKILDRIFPIPIKFIIAADSYIMRTACVFNMVYSIPKSLGFYRQHDNTVFLNPDFDLQPFLKEILIPELNQFYQKYRINYQIEISDYNFNERKKNKKQKIFEYLKKVFFLEHHHHHH | not soluble
MCSLNELITGIKELPEPDLTASRLMDAAADYVPLKLRGHIDAKDINSSPKTLENGGTEFFQALIDITHPRLRLYGSGKELAENVRIHRNFPTSHRSPIIYKSLDNNQYIYKTDVFIIIQNICGYRKDSTNNIIELNRFLEVMYLKAREETSRKYLEFVRFDADSFRKIEKKFEKFNQGACFVDRSLEQRNSNGDHLPIVQELDSMKSIEFIQHPIQRAKHKAVPIEDLKPGSYCILAVDALFELFNEIIWGSRVFEKHKVPKIIEYVLKIPTLLFKSELRFPHFIKTAHLHRLLASFEVSLSSFHFPANPVKEVRNAKADHGFTLQNLKNELTYLGLTETFPDITDYAEIAYNEVMRVKKEMLLRTCDLFDAIEHCQLLCIFNRSPFLKQFLHNQKACHRLVGLHCDLCIKEKVEKSENQEAWDLDESSSTKSPIDCKKCSQTLQTIEDVKKELKTSQNKENKMRKKVSELEKKLDVENVQNEQEVKEMEDDLRGKQEELNILRNDSLKVHDVLMEIADLKQKHSKLEKHVEGLKEENLKQERNYNLTQSNLEANLSSMREGLTILQQYTEELEQERQKYQEMLTARSEETSVQAEPAGGEEEMLDVTKQIEEAKEEKIRLKAEHDANERIIQQLLDKLANFS | not soluble
ANGLITKIWGTAGWTFNHAVTFGYPLNPTSDDKRRYKNYFISLGDVLPCRLCRESYKKFITTGKTALTNEVLRNRHTLTKWFYDVHNAVNNKLEVDYGLSYEDVVNKYESFRAK | soluble
MGSDKIHHHHHHMSGTHDTKQAIASALIELCEQKDFRKISVQDITKKVGLNRQTFYYHFTDKYDLLRWIYRHDALIYLETDICLENWEEQALKLLKAIKEKSHFYYTTVTSDSEVLLNVFSASTNRLFISLFEQVDVENHLTDKDKQFYANFFSYGCSGVLTKWILEEYPQTPLEMATQLFRLAKDTEFMAYHLYEQEANE | not soluble
MAFLDNPTIILAHIRQSHVTSDDTGMCEMVLIDHDVDLEKIHPPSMPGDSGSEIQGSNGETQGYVYAQSVDITSSWDFGIRRRSNTAQRLERLRKERQNQIKCKNIQWKERNSKQSAQELKSLFEKKSLKEKPPISGKQSILSVRLEQCPLQLNNPFNEYSKFDGKGHVGTTATKKIDVYLPLHSSQDRLLPMTVVTMASARVQDLIGLICWQYTSEGREPKLNDNVSAYCLHIAEDDGEVDTDFPPLDSNEPIHKFGFSTLALVEKYSSPGLTSKESLFVRINAAHGFSLIQVDNTKVTMKEILLKAVKRRKGSQKVSGSRADGVFEEDSQIDIATVQDMLSSHHYKSFKVSMIHRLRFTTDVQLGISGDKVEIDPVTNQKASTKFWIKQKPISIDSDLLCACDLAEEKSPSHAIFKLTYLSNHDYKHLYFESDAATVNEIVLKVNYILESRASTARADYFAQKQRKLNRRTSFSFQKEKKSGQQ | soluble
KQSKLTLMSESLRNDGRIWVPKKLEDAKALQAGTKKPTDIPDADRDFYLERRYPAFGNLVPRDVASRAAKERCDAGFGVNNTGLAVFLDFKYAIDRLGEDVVRARYGNLFDMYEEITDENPYKTPMMIFPA | soluble
